From patent US20220119492A1 (MEDIKINE, published 2022) come the findings set out here.

The IC50 is the concentration that gives 50% inhibition. Low readings indicate higher potency, high ones lower potency.

Bridge positions count the residues as written; N and C are the ends. Ends that are not written are not given here.

The target in this assay is T1, human IL-2Rβ (CD122 protein, Fc Tag) (27-239) (human, UniProt P14784 27-239).
T1 construct: range 27-239; Bought protein; also called hu-IL-2Rβ subunit; IL-2Rβ subunit; not shown: Fc tag of the bought protein
T1 sequence (looked up): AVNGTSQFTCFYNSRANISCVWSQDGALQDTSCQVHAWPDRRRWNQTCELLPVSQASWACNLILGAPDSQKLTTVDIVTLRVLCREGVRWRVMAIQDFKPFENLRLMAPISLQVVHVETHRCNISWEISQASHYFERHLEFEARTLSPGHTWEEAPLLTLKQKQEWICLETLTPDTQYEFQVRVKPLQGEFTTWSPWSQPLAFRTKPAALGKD
The experiment in a line: phage ELISA competition. The procedure, abridged: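 In this competitive binding ELISA, test ligands compete with a phage tracer for human IL-2Rβ-Fc, and IC50 is calculated from the absorbance signal over the ligand dilution series. A 50 μL volume of phage tracer was added without washing and left for 45 min at 4° C. TMB was used to detect bound phage for 1 to 15 min at 25° C, after which stop solution was added and absorbance was read at 450 nm.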
Background: In an ELISA, binding on a coated surface is turned into a signal by an enzyme label.

Consider YVPCYMARLGELCELEANRPGQ [SEQ ID NO 2625], for which the IC50 is less than 100 µM.
The same measure for WFPCWMAQLGDLCELEPDSVPA [SEQ ID NO 2627]: less than 100 µM; for WLPCWMAQLGELCVME [SEQ ID NO 2589]: less than 100 µM.
In the case of WKPCWMARLGELCDIEDTKVNA [SEQ ID NO 2615] it was less than 100 µM.
WFPCWMAQLGEVCDLD [SEQ ID NO 2581] returned a half-maximal inhibitory concentration (IC50) of less than 100 µM.
In turn, FFPCWMGQLGDLCDLEVRSMQK [SEQ ID NO 2632] returned an IC50 of less than 100 µM.
In the case of SWPCWMAQLGDLCDLDGSAGAS [SEQ ID NO 2622] it was less than 100 µM.
For the molecule WKPCWMAGLGELCELD [SEQ ID NO 2592], the concentration for half-maximal inhibition (IC50) was less than 100 µM.
WWPCSSAELGEICDFD [SEQ ID NO 2593] displayed a concentration for half-maximal inhibition (IC50) of less than 100 µM.
The same measure for ALVGGTFYPCYVAHLGELCDIE [SEQ ID NO 2606]: less than 100 µM.
In the case of WKPCFIASLGELCDLDQGSVEV [SEQ ID NO 2629] it was less than 100 µM; in that of LHPCWMAQLGELCDLE [SEQ ID NO 2590], less than 100 µM; in that of WRVTASLQPCWMAQLGELCDLN [SEQ ID NO 2603], less than 100 µM.
In the case of WQPCWRAKLGELCDLE (disulfide 4-13 (inferred)) [SEQ ID NO 2594] it was less than 100 µM; in that of WKPCWMAALGELCDLERSVGKV [SEQ ID NO 2630], less than 100 µM; in that of GSGWQPCWMADLGELCDLDNEK [SEQ ID NO 2638], less than 100 µM.
Take GAGVLHRWPCWMAKLGDLCDLD [SEQ ID NO 2600]: the IC50 is less than 100 µM.
In the case of WYSCGKAQLGELCDLDVESQPG [SEQ ID NO 2624] it was less than 100 µM; in that of IDRADGWKPCWIAQVGELCVLE [SEQ ID NO 2607], less than 100 µM.
As to AVSHGNWLPCYIAQLGELCDLD [SEQ ID NO 2609], the IC50 was less than 100 µM.
In turn, SLPCWMAQLGDLCELH (disulfide 4-13 (inferred)) [SEQ ID NO 2583] displayed an IC50 of less than 100 µM.
In the case of GYPCWLAQLGDYCDLDAGAPSW [SEQ ID NO 2621] it was less than 100 µM.
The same measure for MGSWLPCWMAQLGDLCDVEGGM [SEQ ID NO 2636]: less than 100 µM; for SKPCWLAQLGDLCDFDWTAADH [SEQ ID NO 2626]: less than 100 µM; for IPKGESWFPCWMAAMGELCDLE [SEQ ID NO 2610]: less than 100 µM.
In the case of GQVVETSLPCWEAQLGELCVLD [SEQ ID NO 2604] it was less than 100 µM; in that of YWPCSMASLGELCDLEWQGRLP [SEQ ID NO 2633], less than 100 µM.
In the case of WLPCWMAKLGDLCELE [SEQ ID NO 2588], the IC50 is less than 100 µM.
In the case of WSPCWIATLGELCDLD [SEQ ID NO 2595] it was less than 100 µM; in that of WLPCWLAHLGDICDLQ [SEQ ID NO 2597], less than 100 µM.
In the case of YKPCQMAQLGELCDLDVDNKAE [SEQ ID NO 2613], the half-maximal inhibitory concentration (IC50) is less than 100 µM.
In the case of FKPCWIANLGELCDMDDERSSE [SEQ ID NO 2614] it was less than 100 µM; in that of WYPCYMASLGELCDLQSSISPR [SEQ ID NO 2634], less than 100 µM; in that of YKPCWIAQLGELCELE [SEQ ID NO 2585], less than 100 µM.
The same measure for SLPCWIARLGELCDLDGYDGEE [SEQ ID NO 2616]: less than 100 µM; for WLSPPSYLPCWMAQLGELCDLV [SEQ ID NO 2598]: less than 100 µM.
In the case of RLPCWRAQLGDLCELDWGLDMG [SEQ ID NO 2619] it was less than 100 µM; in that of YRRERVEFPCWLAQLGELCDKE [SEQ ID NO 2608], less than 100 µM; in that of WDVHAIRNPCWLAKLGDLCDLD [SEQ ID NO 2599], less than 100 µM.
WKPCWIADLGELCDLAPAWHEY [SEQ ID NO 2618] returned an IC50 of less than 100 µM.
The same measure for QKGFLPCWRAQLGQLCDMESQY [SEQ ID NO 2637]: less than 100 µM; for SLPCWMAQLGELCDLV [SEQ ID NO 2591]: less than 100 µM.
In the case of WQPCWMAQLGELCDLE [SEQ ID NO 2586] it was less than 100 µM; in that of WYPCHMAKLRELCDLD [SEQ ID NO 2582], less than 100 µM; in that of WTPCWIAHLGDLCDLEPQDDTD (disulfide 4-13 (inferred)) [SEQ ID NO 2628], less than 100 µM.
The same measure for FYPCWKARLGELCELEELRGYY [SEQ ID NO 2617]: less than 100 µM.
Molecule SNPCWMAQLWELCDLE [SEQ ID NO 2584] yielded an IC50 of less than 100 µM.
The same measure for WNPCWIAQLGDLCDMV [SEQ ID NO 2596]: less than 100 µM.
With WYPCWIAQLGEVCDLEKQTGSV (disulfide 4-13 (inferred)) [SEQ ID NO 2611], the half-inhibitory concentration (IC50) was less than 100 µM.
In turn, WYPCWMAHLGDVCDLESFGQTE [SEQ ID NO 2612] came in with an IC50 of less than 100 µM.
The molecule SKPCWMAQLGELCDLDVWNLQM [SEQ ID NO 2620] had an IC50 of less than 100 µM.
The same measure for WYPCWMAQLGELCDHEWPSYGA [SEQ ID NO 2635]: less than 100 µM; for VRAWYPCWIARLGELCDLEVD (disulfide 7-16 (inferred)) [SEQ ID NO 2580]: less than 100 µM; for WKPCWLAQLGDLCEME [SEQ ID NO 2587]: less than 100 µM.
The same measure for WKPCWLAQLGELCDLERPSTTS [SEQ ID NO 2623]: less than 100 µM; for EQGMLGYFPCWKALLGDVCDLD [SEQ ID NO 2602]: less than 100 µM.
The same measure for DTGRDGWKPCWMALLGELCELE (disulfide 10-19 (inferred)) [SEQ ID NO 2601]: less than 100 µM; for TVGQFEWYPCSTAQLGELCDLD [SEQ ID NO 2605]: less than 100 µM; for WKPCWRAQLGELCDLELGPSER [SEQ ID NO 2631]: less than 100 µM.
